Assay results taken from PMC9795577.

Legend:
[1] = molecular target: FLAG-tagged yeast PEX13 with a single cysteine at residue 104 in the YG domain (S. cerevisiae) (UniProt P80667); test: cross-linking; disulfide cross-linking of introduced cysteines in intact yeast membranes: 0, 50 or 200 μM Aldrithiol-4, 30 min at 30 °C, 20 mM HEPES-NaOH pH 7.2, 50 mM NaCl, 250 mM sucrose, 1 mM EDTA; quenched with NEM, solubilised in 0.5 % DDM, anti-FLAG IP, non-reducing or reducing SDS-PAGE, blot; also with DDM added before the oxidant, and in strains lacking PEX2, PEX5, PEX14 or PEX17
[2] = molecular target: FLAG-tagged yeast PEX13 with two cysteines (104 and 131) and all tyrosines of the YG domain converted into serines (UniProt P80667); test: disulfide crosslinking in intact membranes, FLAG IP and immunoblot quantification; conditions: nonreducing SDS-PAGE, read off a plot
Sequence of FLAG-tagged yeast PEX13 with two cysteines (104 and 131) and all tyrosines of the YG domain converted into serines (P80667 other isoform, or with tags, fused parts or gaps): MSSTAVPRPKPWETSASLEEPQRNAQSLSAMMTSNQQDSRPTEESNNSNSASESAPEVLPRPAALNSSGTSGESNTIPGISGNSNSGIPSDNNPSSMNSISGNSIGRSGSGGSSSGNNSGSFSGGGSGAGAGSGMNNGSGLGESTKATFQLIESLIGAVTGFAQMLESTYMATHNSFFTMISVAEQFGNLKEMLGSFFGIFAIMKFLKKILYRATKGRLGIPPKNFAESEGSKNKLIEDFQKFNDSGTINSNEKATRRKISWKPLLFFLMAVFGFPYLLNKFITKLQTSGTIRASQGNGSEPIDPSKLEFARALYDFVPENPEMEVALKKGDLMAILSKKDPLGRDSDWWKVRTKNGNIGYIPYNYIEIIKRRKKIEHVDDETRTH

[3] = molecular target: FLAG-tagged yeast PEX13 with two cysteines in the YG domain (positions 104 and 131) (S. cerevisiae) (UniProt P80667); test: cross-linking; disulfide cross-linking of introduced cysteines in intact yeast membranes: 0, 50 or 200 μM Aldrithiol-4, 30 min at 30 °C, 20 mM HEPES-NaOH pH 7.2, 50 mM NaCl, 250 mM sucrose, 1 mM EDTA; quenched with NEM, solubilised in 0.5 % DDM, anti-FLAG IP, non-reducing or reducing SDS-PAGE, blot; also with DDM added before the oxidant, and in strains lacking PEX2, PEX5, PEX14 or PEX17
[4] = molecular target: FLAG-tagged yeast PEX13 with a single cysteine at residue 131 in the YG domain (S. cerevisiae) (UniProt P80667); test: as above

Sequence of FLAG-tagged yeast PEX13 with two cysteines in the YG domain (positions 104 and 131) (P80667 whole entry, the tested form may be a part): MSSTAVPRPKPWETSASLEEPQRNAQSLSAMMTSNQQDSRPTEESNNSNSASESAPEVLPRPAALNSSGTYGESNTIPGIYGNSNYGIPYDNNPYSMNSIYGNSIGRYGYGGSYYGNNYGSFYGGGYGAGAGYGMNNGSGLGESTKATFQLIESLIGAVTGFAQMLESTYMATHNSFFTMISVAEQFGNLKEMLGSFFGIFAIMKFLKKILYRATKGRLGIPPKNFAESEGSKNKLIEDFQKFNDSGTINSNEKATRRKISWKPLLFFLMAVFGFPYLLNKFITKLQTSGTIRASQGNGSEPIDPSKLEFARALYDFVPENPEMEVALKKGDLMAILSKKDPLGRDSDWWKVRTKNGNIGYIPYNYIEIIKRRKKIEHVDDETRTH
Sequence of FLAG-tagged yeast PEX13 with a single cysteine at residue 131 in the YG domain (P80667 whole entry, the tested form may be a part): as above
Sequence of FLAG-tagged yeast PEX13 with a single cysteine at residue 104 in the YG domain (P80667 whole entry, the tested form may be a part): as above

## FLAG-tagged yeast PEX13 with a single cysteine at residue 104 in the YG domain (from UniProt P80667 1-386) (natural protein)
[1]
  percent disulfide-linked dimers: > 70%

## FLAG-tagged yeast PEX13 with two cysteines in the YG domain (positions 104 and 131) (from UniProt P80667) Y71S; Y81S; Y86S; Y90S; Y95S; Y101S; Y108S; Y110S; Y114S; Y115S; Y119S; Y123S; Y127S; Y133S
[2]; lane 4 (parent lane 1), lowest point of oxidant series, 0 µM Aldrithiol-4, parent: est. 0.10
  other: fraction crosslinked: 0.06
[2]; lane 5 (parent lane 2), middle point of oxidant series, 50 µM Aldrithiol-4, parent: est. 0.67
  other: fraction crosslinked: 0.1
[2]; lane 6 (parent lane 3), highest point of oxidant series, 200 µM Aldrithiol-4, parent: est. 0.70
  other: fraction crosslinked: 0.18

## FLAG-tagged yeast PEX13 with two cysteines in the YG domain (positions 104 and 131) (from UniProt P80667 1-386) (natural protein)
[3]
  stoichiometry N: > 8

## FLAG-tagged yeast PEX13 with a single cysteine at residue 131 in the YG domain (from UniProt P80667 1-386) (natural protein)
[4]
  percent disulfide-linked dimers: > 70%
